Laboratory results: the supplement of paper PMC7877785
± gives the uncertainty stated by the source.

Experiment: self-splicing fitness, log relative to wild type (ln ratio); higher = more splicing; Tetrahymena group I intron in knt gene, E. coli kanamycin selection, DiMSum; sequences stand for … in CUCUCU…GGAGGGAAAAGUUAUCAGGCAUGCACCUGGUAGCUAGUCUUUAAACCAAUAGAUUGCAUCGGUUUAAAAGGCAAGACCGUCAAAUUGCGGGAAAGGGGUCAACAGCCGUUCAGUACCAAGUCUCAGGGGAAACUUUGAGAUGGCCUUGCAAAGGGUAUGGUAAUAAGCUGACGGACAUGGUCCUAACCACGCAGCCAAGUCCUAAGUCAACAGAUCUUCUGUUGAUAUGGAUGCAGUUCACAGACUAAAUGUCGGUCGGGGAAGAUGUAUUCUUCUCAUAAGAUAUAGUCGGACCUCUCCUUAAUGGGAGCUAGCGGAUGAAGUGAUGCAACACUGGAGCCGCUGGGAACUAAUUUGUAUGCGAAAGUAUAUUGAUUAGUUUUGGAGUACUCGUGGUCG
Procedure, shortened: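 Library with all eight P1ex-region intron nucleotides randomised, intron inside the knt kanamycin-resistance gene on pET-22b(+), in E. coli BL21(DE3). Cells grew overnight at 37°C or 30°C on LB agar with or without 25 μg/mL kanamycin (plus 100 μg/mL carbenicillin, 50 μM IPTG, 0.2% rhamnose), in six replicate transformations. Pooled colonies were amplicon-sequenced on Illumina HiSeq 2500. DiMSum fitness is the error-weighted combination of wild-type-normalised replicate fold changes, kanamycin versus none.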

Sequence | self-splicing fitness (ln) (30 °C) | self-splicing fitness (ln) (37 °C)
CCGAAGCAAUAUUACGACAG | -0.797 ± 0.098 | -0.282 ± 0.12
GCCAAGCAAUAUUACGUUAA | -3.54 ± 0.21 | -2.89 ± 0.17
UCAGAGCAAUAUUACGGUAG | -3.45 ± 0.24 | -2.39 ± 0.27
CUCCAGCAAUAUUACGCAGC | -2.51 ± 0.15 | -2.25 ± 0.49
AUUUAGCAAUAUUACGAGGU | -3.21 ± 0.39 | -1.91 ± 0.42
AUAAAGCAAUAUUACGCGAC | -1.4 ± 0.13 | -0.298 ± 0.13
CAACAGCAAUAUUACGCCGG | -0.647 ± 0.062 | 0.147 ± 0.087
CCUUAGCAAUAUUACGUCCC | -1.81 ± 0.5 | 
CGCGAGCAAUAUUACGCCUG | -2.95 ± 0.34 | -1.99 ± 0.26
AUACAGCAAUAUUACGCUGU | -4.13 ± 0.36 | -3.51 ± 0.33
ACUAAGCAAUAUUACGCUUC | -1.69 ± 0.17 | -0.717 ± 0.14
ACGGAGCAAUAUUACGCAGA | -2.52 ± 0.36 | -2.02 ± 0.29
CUCAAGCAAUAUUACGACAC | -3.35 ± 0.29 | -2.52 ± 0.3
UUGAAGCAAUAUUACGGCAA | 0.615 ± 0.092 | 0.402 ± 0.12
AUACAGCAAUAUUACGUUAA | -3.26 ± 0.18 | -1.41 ± 0.11
AGAGAGCAAUAUUACGAUUG | -3.12 ± 0.25 | -2.88 ± 0.35
CCCAAGCAAUAUUACGACCA | -4.66 ± 0.32 | -2.27 ± 0.17
AUAUAGCAAUAUUACGUAUU | -2.94 ± 0.22 | -1.63 ± 0.21
UAGGAGCAAUAUUACGGGUC | -2.64 ± 0.19 | 
UAAGAGCAAUAUUACGGCUC | -1.82 ± 0.26 | -1.32 ± 0.32
CCAAAGCAAUAUUACGUUCA | -2.59 ± 0.17 | -3.38 ± 0.33
UCAUAGCAAUAUUACGUAUA | -2.54 ± 0.34 | -2.13 ± 0.28

Sequence | self-splicing fitness (ln) (30 °C) | self-splicing fitness (ln) (37 °C)
CCUUAGCAAUAUUACGAUCG | -0.392 ± 0.07 | -0.134 ± 0.1
AGAAAGCAAUAUUACGCUCU | -3.2 ± 0.37 | -2.58 ± 0.49
UUAUAGCAAUAUUACGUCGG | -1.58 ± 0.27 | -0.309 ± 0.24
CGAUAGCAAUAUUACGGAAU | -3.23 ± 0.16 | -2.01 ± 0.2
CGCAAGCAAUAUUACGUGCG | -2.81 ± 0.26 | -2.23 ± 0.2
UCAGAGCAAUAUUACGGUCA | -1.72 ± 0.18 | -2.42 ± 0.32
CCCAAGCAAUAUUACGGUGA | -1.27 ± 0.07 | -1.16 ± 0.077
CGCGAGCAAUAUUACGAUGG | -1.66 ± 0.12 | -1.2 ± 0.14
AUAUAGCAAUAUUACGCCUU | -1.01 ± 0.12 | -0.431 ± 0.12
AUACAGCAAUAUUACGACGC | -0.948 ± 0.13 | 0.227 ± 0.16
GCUCAGCAAUAUUACGGCUA | -0.707 ± 0.13 | -0.758 ± 0.12
AAUGAGCAAUAUUACGAAGU |  | -2.16 ± 0.33
UAUCAGCAAUAUUACGUCAU | -1.88 ± 0.13 | -1.42 ± 0.15
GUACAGCAAUAUUACGUCGC | -2.57 ± 0.15 | -0.812 ± 0.16
GACAAGCAAUAUUACGUGAC | -1.47 ± 0.096 | -1.42 ± 0.12
AAAGAGCAAUAUUACGACUU | -0.0829 ± 0.067 | -0.0473 ± 0.079
UCAUAGCAAUAUUACGGUAU |  | -2.43 ± 0.28
GAAAAGCAAUAUUACGCCUA | -1.15 ± 0.11 | -0.681 ± 0.099
GGCCAGCAAUAUUACGAUAA | -3.64 ± 0.4 | -1.09 ± 0.15
CCUCAGCAAUAUUACGUGAG | -0.99 ± 0.057 | -0.881 ± 0.071
GCAAAGCAAUAUUACGUGUA | -0.807 ± 0.071 | -0.701 ± 0.074
